Laboratory results from patent publication US8735553 (BEIGENE SWITZERLAND, dated 2014).
Residue numbers refer to the chain shown, from its start. Where two headings read alike, the source gives them in different places. Values belong to the binder of their own block, whether it stands above or below them.

What was measured:
[1] = biological target: T1, human PD-1 expressed on cells (human, UniProt Q15116 25-288); test: FACS on PD-1-expressing cells
T1 construct: whole, on cells; also called HuT78/PD-1; NK92MI/PD-1
T1 sequence (Q15116 25-288): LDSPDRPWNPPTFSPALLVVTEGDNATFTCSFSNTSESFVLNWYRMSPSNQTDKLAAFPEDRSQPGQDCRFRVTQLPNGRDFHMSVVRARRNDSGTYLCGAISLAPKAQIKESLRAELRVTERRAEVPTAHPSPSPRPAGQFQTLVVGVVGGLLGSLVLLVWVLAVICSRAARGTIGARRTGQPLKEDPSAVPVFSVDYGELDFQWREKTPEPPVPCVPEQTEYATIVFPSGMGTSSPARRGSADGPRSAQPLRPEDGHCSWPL

[2] = biological target: T1, human PD-1 expressed on cells; test: FACS on PD-1-expressing cells; remark: listed apart in the source
[3] = biological target: P3Z chimeric PD-1 receptor (human); test: cell-based or functional assay
Sequence of P3Z chimeric PD-1 receptor (human) (chain, as listed by the source mutant limits assumed): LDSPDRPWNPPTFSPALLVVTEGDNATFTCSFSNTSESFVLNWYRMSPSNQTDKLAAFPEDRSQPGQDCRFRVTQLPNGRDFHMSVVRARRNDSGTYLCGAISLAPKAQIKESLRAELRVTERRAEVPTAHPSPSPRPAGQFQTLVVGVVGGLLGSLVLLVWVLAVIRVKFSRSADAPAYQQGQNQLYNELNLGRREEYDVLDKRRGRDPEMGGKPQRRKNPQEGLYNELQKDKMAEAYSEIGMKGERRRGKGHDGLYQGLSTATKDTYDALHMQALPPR

[4] = biological target: T1, human PD-1 expressed on cells; test: cell-based or functional assay
[5] = biological target: P3Z chimeric PD-1 receptor (human); test: cell-based or functional assay; remark: listed apart in the source
[6] = biological target: T1, human PD-1 expressed on cells; test: cell-based or functional assay; remark: listed apart in the source
human FcγRI = biological target: T2, human FcγRI (human, UniProt P12314 16-374); test: flow cytometry, FcγR+ HEK293 cells
T2 construct: whole, on cells; also called FcγR1
T2 sequence (P12314 16-374): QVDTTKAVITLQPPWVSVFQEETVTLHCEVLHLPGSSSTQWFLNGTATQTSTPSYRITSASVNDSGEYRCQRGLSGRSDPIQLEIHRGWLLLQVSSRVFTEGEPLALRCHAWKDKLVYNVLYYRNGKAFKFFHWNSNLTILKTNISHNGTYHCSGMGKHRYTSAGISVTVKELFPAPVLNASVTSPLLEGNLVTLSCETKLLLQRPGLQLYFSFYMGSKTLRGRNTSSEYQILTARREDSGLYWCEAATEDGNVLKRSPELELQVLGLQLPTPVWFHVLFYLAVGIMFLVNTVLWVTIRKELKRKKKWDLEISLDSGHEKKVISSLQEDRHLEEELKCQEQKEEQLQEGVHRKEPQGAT
Experimental: (§1) Binding of various IgG4 mutants to FcγRs was determined by flow cytometry. In brief, a series of HEK293 transfectants expressing human FcγRs were established. These transfectants expressed FcγRI, FcγRIIA, FcγRIIB or FcγRIIIA Multi-subunit FcγRs (i.e., FcγR1 and FcγRIIIA) were co-expressed with FcRγ. Polymorphic variants (i.e., FcγRIIA H131 and R131, FcγRIIIA F158 and V158) were also included.

human FcγRIIIA (F158) = biological target: T3, human FcγRIIIA (F158) (human, UniProt P08637 17-254); test: flow cytometry, FcγR+ HEK293 cells
T3 construct: whole, on cells
T3 sequence (P08637 17-254): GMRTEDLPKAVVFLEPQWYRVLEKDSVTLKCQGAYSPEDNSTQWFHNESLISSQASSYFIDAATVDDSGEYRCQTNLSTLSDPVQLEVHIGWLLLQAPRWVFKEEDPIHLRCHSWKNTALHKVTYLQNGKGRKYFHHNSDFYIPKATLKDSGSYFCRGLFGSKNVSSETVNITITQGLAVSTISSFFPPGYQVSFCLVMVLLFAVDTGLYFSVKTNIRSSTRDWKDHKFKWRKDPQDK
Experimental: as §1

human FcγRIIIA (V158) = biological target: T4, human FcγRIIIA (V158) (human, UniProt P08637 17-254); test: flow cytometry, FcγR+ HEK293 cells
T4 construct: whole, on cells; also called CD16 (V158 allele)
T4 sequence (P08637 17-254 F176V limits assumed): as the sequence (P08637 17-254) above, with F160V counted along it
Experimental: as §1

[7] = biological target: T5, wild-type human PD-1 recombinant protein (PD-1/His or PD-1/Fc, not said which) (human, UniProt Q15116 21-168); test: ELISA on coated recombinant PD-1
T5 construct: also called WT PD-1
T5 sequence (Q15116 21-168 limits assumed): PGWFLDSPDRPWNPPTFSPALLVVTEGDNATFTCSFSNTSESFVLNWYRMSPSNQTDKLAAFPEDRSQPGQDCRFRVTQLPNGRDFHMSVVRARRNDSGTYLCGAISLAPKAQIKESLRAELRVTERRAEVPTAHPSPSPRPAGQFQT

[8] = biological target: P3Z chimeric PD-1 receptor (human); test: cell-based or functional assay; remark: listed apart in the source
[9] = biological target: T1, human PD-1 expressed on cells; test: cell-based or functional assay; remark: listed apart in the source
[10] = biological target: T1, human PD-1 expressed on cells; test: FACS on PD-1-expressing cells, goat anti-human IgG detection

- EC50 [1]: 0.317 µg/mL
- EC50 [2]: 0.117 µg/mL
- Top MFI [2]: 129 MFI
- Assay-2 IL-2 release, IC50 (HuT78/P3Z + HEK293/PD-L1) [3]: 0.1 µg/mL
- Assay-2 IL-2 release, Max inhibition (HuT78/P3Z + HEK293/PD-L1) [3]: 84.4%
- Assay-1 IL-2 release, EC50 (HuT78/PD-1 + HEK293/OS8/PD-L1) [4]: 0.112 µg/mL
- Assay-1 IL-2 release, Top line (HuT78/PD-1 + HEK293/OS8/PD-L1) [4]: 1140 pg/mL
- IL-2 release in HuT78/P3Z, IC50 [5]: 0.087 µg/mL
- IL-2 release in HuT78/P3Z, Max inhibition [5]: 92.4%
- IL-2 release in HuT78/PD-1, EC50 [6]: 0.213 µg/mL
- IL-2 release in HuT78/PD-1, Top line [6]: 987 pg/mL
B1: hu326-1 (antibody, IgG2, V domains shown, not shown: a dimerising Fc or GST)
VH: QVQLVQSGSELKKPGASVKVSCKASGYTFTNYGMNWVRQAPGQGLEWMGWINNNNGEPTYAQGFRGRFVFSLDTSASTAYLQISSLKTEDTAVYFCARDVMDYWGQGTTVTVSS
VL: DIVLTQSPASLAVSPGQRATITCRASESVDNYGYSFMHWYQQKPGQPPKLLIYRASNLESGVPARFSGSGSRTDFTLTINPVEANDTANYYCQQSKEYPTFGGGTKVEIKR
notes: domain: Ig kappa C-region; Initial humanized version, IgG2 / kappa

- binding result (human FcγRI): no binding
- binding result (human FcγRIIIA (F158)): no binding
- binding result (human FcγRIIIA (V158)): no binding
B2: hu326-4A3/IgG4mt10 (antibody)
heavy: QVQLVQSGSELKKPGASVKVSCKASGYTFTNYGMNWVRQAPGQGLKWMGWINNNNAEPTYAQDFRGRFVFSLDTSASTAYLQISSLKTEDTAVYYCARDVMDYWGQGTLVTVSSASTKGPSVFPLAPCSRSTSESTAALGCLVKDYFPEPVTVSWNSGALTSGVHTFPAVLQSSGLYSLSSVVTVPSSSLGTKTYTCNVDHKPSNTKVDKRVESKYGPPCPPCPAPPVAGGPSVFLFPPKPKDTLMISRTPEVTCVVVAVSQEDPEVQFNWYVDGVEVHNAKTKPREEQFNSTYRVVSVLTVVHQDWLNGKEYKCKVSNKGLPSSIEKTISKAKGQPREPQVYTLPPSQEEMTKNQVSLTCLVKGFYPSDIAVEWESNGQPENNYKTTPPVLDSDGSFFLYSKLTVDKSRWQEGNVFSCSVMHEALHNHYTQKSLSLSLGK
VL: DIVLTQSPASLAVSPGQRATITCRASESVDNYGYSFMHWYQQKPGQPPKLLIYRASNLESGVPARFSGSGSGTDFTLTINPVEAEDTANYYCQQSKEYPTFGGGTKVEIK
notes: Light chain constant region not restated for this format; copies: 2 + 2

- EC50 [7]: 0.088 µg/mL
B3: hu326-3G1 (antibody, V domains shown)
VH: B1 VH with S9P, E46K, G63D, F95Y, T109L
VL: B2 VL with G72R, E85N
notes: Humanized mAb

- Assay-2 IL-2 release, IC50 (HuT78/P3Z + HEK293/PD-L1) [8]: 0.11 µg/mL
- Assay-2 IL-2 release, Max inhibition (HuT78/P3Z + HEK293/PD-L1) [8]: 99.8%
- Assay-1 IL-2 release, EC50 (HuT78/PD-1 + HEK293/OS8/PD-L1) [9]: 0.09 µg/mL
- Assay-1 IL-2 release, Top line (HuT78/PD-1 + HEK293/OS8/PD-L1) [9]: 386 pg/mL
- EC50 [10]: 0.46 µg/mL
B4: hu317-1 (antibody, IgG2, V domains shown, not shown: a dimerising Fc or GST)
VH: QVQLQESGPGLVKPSETLSLTCTVSGFSLTSYGVHWIRQPPGKGLEWLGVIWAGGSTNYNPSLKSRLTISKDNSKSQVSLKMSSVTAADTAVYYCARAYGNYWYIDVWGQGTTVTVSS
VL: DIVMTQSPDSLAVSLGERATINCKASQSVSNDVAWYQQKPGQPPKLLINYAFHRFTGVPDRFSGSGYGTDFTLTISSLQAEDVAVYYCHQAYSSPYTFGGGTKLEIKR
notes: as for B1

- EC50 [7]: 0.057 µg/mL
B5: hu317-4B5 (antibody, V domains shown)
VH: B4 VH with L48I, W52Y, L67V, N73T, S76N, M82L
VL: DIVMTQSPDSLAVSLGERATINCKSSESVSNDVAWYQQKPGQPPKLLINYAFHRFTGVPDRFSGSGYGTDFTLTISSLQAEDVAVYYCHQAYSSPYTFGQGTKLEIK
notes: Humanized mAb

- EC50 [7]: 0.066 µg/mL
B6: hu317-4B2 (antibody, V domains shown)
VH: B4 VH with L48I, W52Y, L67V, N73T, S76N, V78F, M82L
VL: B5 VL
notes: Humanized mAb
